These results are taken from article PMC6764996.

The target of assay [1] is full-length human DNA polymerase θ (Polθ) (human) (UniProt O75417). Briefly: scanning force microscopy (volume measurements); 10 nM protein with 20 nM 26 nt ssDNA; 25 mM Tris-HCl pH 8.8, 30 mM NaCl, 10 mM MgCl2, 2 mM ATP, 0.01% NP-40, 1 mM DTT; 37 °C, 30 min; deposited on mica; volumes normalised to the monomer's volume.
Assay [2] has the same target. Briefly: negative staining electron microscopy (single particles); 200 nM protein without ssDNA; 25 mM Tris-HCl pH 8.8, 1 mM DTT, 10 mM MgCl2, 2 mM ATP; 37 °C, 30 min; applied to lacey carbon grids, 2% uranyl acetate.
For assay [3] the target is unchanged. Briefly: negative staining electron microscopy (single particles); 200 nM protein pre-incubated with 2 μM 26 nt ssDNA; 25 mM Tris-HCl pH 8.8, 1 mM DTT, 10 mM MgCl2, 2 mM ATP; 37 °C, 30 min; 2% uranyl acetate.

On to “full-length human DNA polymerase θ (Polθ), O75417 1-2590”, for which the percent of Polθ as tetramers or larger (with ssDNA) in assay [1] worked out at 62%. The same substance showed a percent of Polθ as large (> 1000 Å) multimers (without ssDNA) in assay [2] of 3%. Also, in assay [3], the fold increase in large > 1000 Å multimers with ssDNA against without ssDNA is 9 fold.
